Test: yeast display, Sf9 membrane polyspecificity reagent, FACS + sequencing; frameworks hold sequencing errors
How it was run: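 Galactose induction of a Saccharomyces cerevisiae BJ5465 synthetic nanobody display library ran 36–48 hours. The cells were then stained for 1 hour at 4 °C with 10% biotinylated, detergent-solubilized Sf9 membrane reagent, pulled down on streptavidin microbeads and FACS-sorted into low and high (top ~1%) gates on expression and reagent-binding fluorescence. Labels for polyreactivity follow the gate of origin.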

Row | Sequence | polyreactivity (PSR sort gate)
1 | QVQLVESGGGLVQAGGSLRLSCAASGGIFSYYTMGWYRQAPGKERELVARITTGGSTNYADSVKGRFTISRDNAKNTVYLQMNSLKPEDTAVYYCAATGPKYWLTWSSYTRYDYWGQGTQVTVSS | high polyreactivity
2 | QVQLVESGGGLVQAGGSLRLSCAASGGIFTINAMGWYRQAPGKERELVAAITYGGTSTNYADSVKGRFTISRDNAKNTVYLQMNSLKPEDTAVYYCAKLPNLPGDYWGQGTQVTVSS | low polyreactivity
3 | QVQLVESGGGLVQAGGSLRLSCAASGGIFTIYAMGWYRQAPGKETELVASITGGSGSTYYADSVKGRFTISRDNAKNTVYLQMNSLKPEDTAVYYCARETYRRYGAYDYWGQGTQVTVSS | low polyreactivity
4 | QVQLVESGGGLVQAGGSLRLSCAASGGIFTLYVMGWYRQEPGKERELVAAISRTGGSTYYADSVKGRLTISRDNAKNTVYLQMNSLKPEDTAVYYCDAERGVDDSARYGDYDYWGQGTQVTVSS | low polyreactivity
5 | QVQLVESGGGLVQAGGSLRLSCAASGGIFTPYAMGWYIQAPGKEREFVAGIRWSGVSTSYADSVKGRFTISRDNAKNTVYFQMNSLKPEDTAVSYCAATTHRWWVTFDYWGQGTQVTVSS | low polyreactivity
6 | QVQLVESGGGLVQAGGSLRLSCAASGGIFVFYAMGWYRQAPGKERELVAAITYRGGSTSYADSVKRRFTISRDNAKNTVYLQMNSLKPEDTAVYYCNARRRTWYGFYYWGQGTQVTVSS | high polyreactivity
7 | QVQLVESGGGLVQAGGSLRLSCAASGGIFVRYAMGWYRPAPGKERELVAAISSSGDRTYYADSVKGRFTISRDTAKNTVYLQMNSLKPEDTAVYYCNADRGHDKVDYWGQGTQVTVSS | low polyreactivity
8 | QVQLVESGGGLVQAGGSLRLSCAASGGIFVSYAMGWYRQAPGKERELVAAITSGGGTSYADSVKGRFTISRDNAKNTVYLQLTSLKPEDTAVYYCAARFLWSVFGRKGGYWGQGTQVTVSS | low polyreactivity
9 | QVQLVESGGGLVQAGGSLRLSCAASGGIFWYYAMGWYRQAPGKERELVAGISRGGGTYYADSVKGRFTISRDNAKNTVYLQMNSLKPEDTAVYYCAVDGRYAYAYEYWGQGTQVTVSS | low polyreactivity
10 | QVQLVESGGGLVQAGGSLRLSCAASGGIFWYYTMGWYRQAPGKERELVATISSGGRTYYADSVKGRFTISRDNAKNTVYLQMNSLKPEDTAVYYCAAVGWYNDYYWGQGTQVTVSS | high polyreactivity
11 | QVQLVESGGGLVQAGGSLRLSCAASGGIFYAYDMGWYRQAPGKERELVAAITWTGGTTYYADSVKGRFTISRDNAKNTVYLQMNSLKPEDTAVYYCAADDGTNSTARDKDDYYYWGQGTQVTVSS | low polyreactivity
12 | QVQLVESGGGLVQAGGSLRLSCAASGGIFYFNAMGWYRQAPWKERELVAAIDQRGDTTYYADTVKGRFTISRDNAKNTVYLQMNSLKPEDTAVYYCAAEIYFLGDDYWGQGTQFTVSS | high polyreactivity
13 | QVQLVESGGGLVQAGGSLRLSCAASGGIFYLNAMGWYRQAPGKERELVAAISSGVSTYYADSVKGSFTISRDNAKNTVYLKMNSLKPEDTAVYYCNADYNYPAWVGSWWDYDYWGQGTQVTVTS | low polyreactivity
14 | QVQLVESGGGLVQAGGSLRLSCAASGGIFYLYVMGWYRQAPGKERELVAAITSRGGRTYYADSVKGRFTISRDNAKNTVYLQMNSLKPEDTAVYYCNASQSDIFDYDYWGQGTQVTVSS | low polyreactivity
15 | QVQLVESGGGLVQAGGSLRLSCAASGGIFYRYAMGWYRQAPGKERELVAVISRSGSTYYADSVKGRFTISRDNAKNTVYLQMNSQKPEDTAVYYCNKYGQVPGYFSLDYWGQGTQVTVSS | high polyreactivity
16 | QVQLVESGGGLVQAGGSLRLSCAASGGIFYTYAMGWYRQAPGKERELVAGINWSGSSTYYADSVKGRFTISRDNAKNTVYLQMNSLKPEDTAVYYCAARSYSYSTGDYWGQGTQVTVSS | low polyreactivity

Row | Sequence | polyreactivity (PSR sort gate)
17 | QVQLVESGGGLVQAGGSLRLSCAASGGIFYYYAMGWYRQAPGKERQLVAGISADGGSTYYADSVKGRFTISRDNAKNTVYLQMNSLKPEDTAVYYCAADGQFDDYYSLAFDYDYWGQGTQVTVSS | high polyreactivity
18 | QVQLVESGGGLVQAGGSLRLSCAASGGIIDWYVKGWYRQAPGTERELVAAISYKGGSTYYADSVKGRFTISRDYAKTTGYFQMNSLKPEETAVYDCAAGVTSPYRYVWYDYWGQGTQVTVSS | low polyreactivity
19 | QVQLVESGGGLVQAGGSLRLSCAASGGIIGAYVMGWYIQAAGKERELVAAISSGGDTNYADTVKGRFTISRDNAKNTVYIQMNSQKPEDTAVSYCAKDPYWTELYPSGDYWGQGTQVTVSS | low polyreactivity
20 | QVQLVESGGGLVQAGGSLRLSCAASGGILRGYAMGWYRQAPGKERELVAAISRGGRTNYADSVKGRFTISRDNAKNTVYLQMNSLKPEDTAVYYCTALSAFQVDNYDYWGQGTQVTVSS | high polyreactivity
21 | QVQLVESGGGLVQAGGSLRLSCAASGGILSDYAMGWYRQAPGKERELVAAITISGGRTNYADSVKGRITISRDNAKITVYLQMNSLKPEDTAVSYCNKLPWSVRVYKPYDYWGEGTQVTVSS | low polyreactivity
22 | QVQLVESGGGLVQAGGSLRLSCAASGGILVGYDMGWYRQAPGKERELVAAINYSGGSTNYADSVKGRFTISRDNAKNTVYLQMNSLKTEDTALYYCAARSTARYGYWGQGTQVTVSS | low polyreactivity
23 | QVQLVESGGGLVQAGGSLRLSCAASGGISLRYAMGWYRQAPGKERELVAVIDFSGASTYYADSVKGRFTISRDNAKNTVYLQMNSLKPEDTAVYYCAADSHYQDDFRIQYDYWGQGTQVTVSS | low polyreactivity
24 | QVQLVESGGGLVQAGGSLRLSCAASGGIVRSNAMGWYRQAPGKERELVAAINRSVRTYYADSVKGRFTISRDNEKNTVYLQMNSLKPEDTAVYYCAAQQGVISRGNYWGQGTQVTVSA | low polyreactivity
25 | QVQLVESGGGLVQAGGSLRLSCAASGGLFSVYAMGWYRQAPGKERELVASITVSGGSTSYADSVKGRFTISRDNAKNTVYLQMYSLKPEDTAVYYCNTDFAQAHTLSWYEDMDYWGQGTQVTVSS | low polyreactivity
26 | QVQLVESGGGLVQAGGSLRLSCAASGGMGWYRQAPGKERELVATISSVGSTNYADSVKGRFTISRDNAKNTVYLQMNRLKPEDTAVYYCNATGVQYFLYGYWGQGTQVTVSS | low polyreactivity
27 | QVQLVESGGGLVQAGGSLRLSCAASGGMGWYRQAPGKERELVATISSVGSTNYADSVKGRFTISRDNAKNTVYLQMNSLKPEDTAVYYCIATGVQYFLYGYWGQGTQVTVSS | low polyreactivity
28 | QVQLVESGGGLVQAGGSLRLSCAASGGNFWYNTMGWYRQAPWKERELVAAISDSGGRTSYADSVKGRVTISRDNANHTVYLQMNSLKPEDTAVYYCNVDYVVSRGFIYRVDYWGQGTQVTVSS | low polyreactivity
29 | QVQLVESGGGLVQAGGSLRLSCAASGGSFYPYAMGWYRQAPGKERELLAAISWSGDITYYADSVKGRFTISRDNAKNTVYLLINSLKPEDTAVYYCAAGRVVDKDPSYFREGDYWGQGTQVTVSS | low polyreactivity
30 | QVQLVESGGGLVQAGGSLRLSCAASGGTCWWYAMGWYRQAPGKEREFVAAISQRGTSTYYADSVKGRFTISRDNAKNTVYLQMNSLKPEDTAVYYCAVRAYRWRSTLGLYYWGQGTQVTVSS | high polyreactivity
31 | QVQLVESGGGLVQAGGSLRLSCAASGGTFALNAMGWYRQAPGKERELVADIDGRGGSTYYADSVKGRFTISRDNAKNTVYLQMNSLKPEVTAVYYCAARAPFLSVPSELDYWGQGTQVTVSS | low polyreactivity
32 | QVQLVESGGGLVQAGGSLRLSCAASGGTFAQYVMGWYRQAPGKERELVAAISRTGGRTYYADSVKGRFTISRDNAKNTVYLQMNSLKPEDTAVYYCARVYTSYGTPWTNYDYWGQGTQVTVSS | high polyreactivity

Reference: the nanobody polyreactivity screen of Harvey et al. (2022)
